Laboratory results as given in paper PMC7293044.

Biological target: T1, Edc3 (UniProt P39998 1-551)
T1 sequence: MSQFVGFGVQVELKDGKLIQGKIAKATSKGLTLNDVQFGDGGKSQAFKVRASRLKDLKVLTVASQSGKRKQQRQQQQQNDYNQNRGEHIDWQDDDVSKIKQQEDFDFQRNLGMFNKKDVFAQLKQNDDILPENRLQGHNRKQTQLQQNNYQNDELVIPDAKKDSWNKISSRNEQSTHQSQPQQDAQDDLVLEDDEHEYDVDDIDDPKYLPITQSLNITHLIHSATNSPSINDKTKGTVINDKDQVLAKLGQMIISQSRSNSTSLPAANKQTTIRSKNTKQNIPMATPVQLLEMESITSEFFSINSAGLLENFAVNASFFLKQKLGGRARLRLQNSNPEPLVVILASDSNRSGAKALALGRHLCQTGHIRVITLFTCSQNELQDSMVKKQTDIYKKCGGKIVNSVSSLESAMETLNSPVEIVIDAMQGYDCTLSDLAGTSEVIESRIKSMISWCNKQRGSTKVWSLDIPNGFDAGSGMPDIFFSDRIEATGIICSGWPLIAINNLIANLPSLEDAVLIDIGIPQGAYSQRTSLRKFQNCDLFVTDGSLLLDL
Assay: EMSA

B1: RPS28B 3'UTR stem-loop 60mer (WT) (structured_RNA)
RNA: AUUUUUCAAAAAAUGAAUUAAAUGAUUGAAGUCACUUAAUUUUUGUGGUUUUUUGGAGGU
- Kd: 2550 nM
